Source: patent US20200317768A1 (published 2020)

What was measured:
[1] = target: T1, cynomolgus monkey FcγRIIa3 extracellular domain, His-tagged (cynomolgus monkey); assay: SPR (BIACORE), captured antibody, FcgR as analyte
T1 construct: also called cyno FcγRIIa3; cynoFcgRIIa3; not shown: C-terminal His-tag
T1 chain: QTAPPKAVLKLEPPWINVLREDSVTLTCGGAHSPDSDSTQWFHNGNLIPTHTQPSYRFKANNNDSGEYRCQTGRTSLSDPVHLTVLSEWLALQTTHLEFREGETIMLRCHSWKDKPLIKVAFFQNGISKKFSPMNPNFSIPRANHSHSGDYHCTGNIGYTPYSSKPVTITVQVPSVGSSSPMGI

[2] = target: T1, cynomolgus monkey FcγRIIa3 …; assay: SPR (BIACORE); KD of SG1 divided by KD of variant;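 note: relative to parent M103205H795-SG1 carrying the SG1 human heavy chain constant region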
[3] = target: T2, cynomolgus monkey FcγRIIa1 extracellular domain, His-tagged (cynomolgus monkey); assay: SPR (BIACORE); KD of SG1 divided by KD of variant;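 note: relative to parent M103205H795-SG1 carrying the SG1 human heavy chain constant region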
T2 construct: also called cyno FcγRIIa1; cynoFcgRIIa1; not shown: C-terminal His-tag
T2 chain: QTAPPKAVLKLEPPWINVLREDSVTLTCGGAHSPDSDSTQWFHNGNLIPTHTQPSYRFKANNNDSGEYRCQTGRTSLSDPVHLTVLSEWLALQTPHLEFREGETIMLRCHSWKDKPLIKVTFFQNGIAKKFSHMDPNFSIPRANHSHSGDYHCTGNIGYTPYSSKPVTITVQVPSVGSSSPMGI

[4] = target: T3, cynomolgus monkey FcγRIIb extracellular domain, His-tagged (cynomolgus monkey); assay: SPR (BIACORE); KD of SG1 divided by KD of variant;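 note: relative to parent M103205H795-SG1 carrying the SG1 human heavy chain constant region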
T3 construct: also called cyno FcγRIIb; cynoFcγRIIb; not shown: C-terminal His-tag
T3 chain: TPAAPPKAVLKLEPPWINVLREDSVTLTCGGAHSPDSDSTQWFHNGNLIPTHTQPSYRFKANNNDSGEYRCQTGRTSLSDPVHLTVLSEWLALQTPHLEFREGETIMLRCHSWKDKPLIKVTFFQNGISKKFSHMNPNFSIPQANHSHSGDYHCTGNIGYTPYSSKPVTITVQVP

[5] = target: T4, cynomolgus monkey FcγRIIa2 extracellular domain, His-tagged (cynomolgus monkey); assay: SPR (BIACORE); KD of SG1 divided by KD of variant;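 note: relative to parent M103205H795-SG1 carrying the SG1 human heavy chain constant region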
T4 construct: also called cyno FcγRIIa2; cynoFcgRIIa2; not shown: C-terminal His-tag
T4 chain: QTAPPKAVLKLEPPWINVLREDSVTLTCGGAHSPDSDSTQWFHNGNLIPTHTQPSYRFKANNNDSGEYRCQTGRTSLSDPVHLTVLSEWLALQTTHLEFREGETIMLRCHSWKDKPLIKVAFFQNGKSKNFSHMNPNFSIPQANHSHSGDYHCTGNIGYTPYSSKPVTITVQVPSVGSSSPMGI

[6] = target: T5, human FcγRIIaH extracellular domain, His-tagged (human, UniProt P12318 34-217); assay: SPR (BIACORE); KD of SG1 divided by KD of variant
T5 construct: also called human FcγRIIa (type H); FcgRIIaH; not shown: C-terminal His-tag
T5 sequence: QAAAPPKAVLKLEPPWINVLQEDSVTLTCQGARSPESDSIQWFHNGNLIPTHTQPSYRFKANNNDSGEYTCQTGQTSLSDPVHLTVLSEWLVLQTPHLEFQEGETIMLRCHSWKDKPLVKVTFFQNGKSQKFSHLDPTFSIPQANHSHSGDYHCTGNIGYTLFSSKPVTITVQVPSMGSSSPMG

[7] = target: T6, cynomolgus monkey FcγRIIIaS extracellular domain, His-tagged (cynomolgus monkey, UniProt Q8SPW2 21-206 at identity 1.00)); assay: SPR (BIACORE); KD of SG1 divided by KD of variant
T6 construct: also called cyno FcγRIIIaS; cynoFcγRIIIaS; not shown: C-terminal His-tag
T6 chain: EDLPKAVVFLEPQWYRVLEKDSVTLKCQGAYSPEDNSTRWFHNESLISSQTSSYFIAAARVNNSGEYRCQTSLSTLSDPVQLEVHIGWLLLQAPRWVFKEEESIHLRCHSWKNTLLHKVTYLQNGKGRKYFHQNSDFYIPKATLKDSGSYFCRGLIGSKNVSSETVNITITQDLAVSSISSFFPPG

[8] = target: T7, human FcγRIIIaV extracellular domain, His-tagged (human, UniProt P08637 17-208); assay: SPR (BIACORE); KD of SG1 divided by KD of variant
T7 construct: also called FcgRIIIaV; not shown: C-terminal His-tag
T7 sequence (P08637 17-208 F176V): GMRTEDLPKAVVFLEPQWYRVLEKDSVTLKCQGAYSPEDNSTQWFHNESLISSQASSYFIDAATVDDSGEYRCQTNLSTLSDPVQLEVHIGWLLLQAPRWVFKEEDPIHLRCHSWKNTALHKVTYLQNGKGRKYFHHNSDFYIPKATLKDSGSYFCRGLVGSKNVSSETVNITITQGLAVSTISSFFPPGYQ

[9] = target: T8, human FcγRIIb extracellular domain, His-tagged (human, UniProt P31994 43-217); assay: SPR (BIACORE); KD of SG1 divided by KD of variant
T8 construct: also called FcgRIIb (human); not shown: C-terminal His-tag
T8 sequence: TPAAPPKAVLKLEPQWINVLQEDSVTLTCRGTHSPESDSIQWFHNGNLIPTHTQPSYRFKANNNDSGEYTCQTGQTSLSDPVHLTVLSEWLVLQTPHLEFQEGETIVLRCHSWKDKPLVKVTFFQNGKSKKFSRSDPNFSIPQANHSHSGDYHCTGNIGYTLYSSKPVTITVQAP

B1: M103205H795-MY474/M103202L889-SK1 (antibody, human IgG1, kappa)
heavy: QVTLKESGPVLVKPTETLTLTCTVSGIDLSHDDISWVRQAPGKGLEWVGIISYAGSTYYASWAKGRLTISKDTSKNQVVLTMTNMDPVDTATYYCARGVPAYSHGGDLWGQGTLVTVSSASTKGPSVFPLAPSSKSTSGGTAALGCLVKDYFPEPVTVSWNSGALTSGVHTFPAVLQSSGLYSLSSVVTVPSSSLGTQTYICNVNHKPSNTKVDKKVEPKSCDKTHTCPPCPVPELLTGPSVFLFPPKPKDTLMISRTPEVTCVVVDVSDEDPEVKFNWYVDGVEVHNAKTKPREEQYNSTYRVVSVLTVLHQDWLNGKEYKCKVSNKALPKPIEKTISKAKGQPREPQVYTLPPSREEMTKNQVSLTCLVKGFYPSDIAVEWESNGQPENNYKTTPPVLDSDGSFFLYSKLTVDKSRWQQGNVFSCSVMHEALHNHYTQKSLSLSP
light: DIVMTQSPATLSLSPGERATLSCTSSQSVYHANWLSWFQQKPGQPPKLLIYWASTLAYGVPSRFSGSGSGTDFTLTISSLQPEDAATYYCAGGYGGGRYAFGQGTKVEIKRTVAAPSVFIFPPSDEQLKSGTASVVCLLNNFYPREAKVQWKVDNALQSGNSQESVTEQDSKDSTYSLSSTLTLSKADYEKHKVYACEVTHQGLSSPVTKSFNRGEC
notes: copies: 2 + 2
[1]
  Kd: 4.8 µM
[2]
  KD fold (SG1 = 1): 3.5 fold
[3]
  KD fold (SG1 = 1): 1.6 fold
[4]
  KD fold (SG1 = 1): 3.6 fold
[5]
  KD fold (SG1 = 1): 2.8 fold
[6]
  KD fold (SG1 = 1): 4.1 fold
[7]
  KD fold (SG1 = 1): 0.2 fold
[8]
  KD fold (SG1 = 1): 0.2 fold
[9]
  KD fold (SG1 = 1): 2.3 fold

B2: M103205H795-MY476/M103202L889-SK1 (antibody, human IgG1, kappa)
heavy: QVTLKESGPVLVKPTETLTLTCTVSGIDLSHDDISWVRQAPGKGLEWVGIISYAGSTYYASWAKGRLTISKDTSKNQVVLTMTNMDPVDTATYYCARGVPAYSHGGDLWGQGTLVTVSSASTKGPSVFPLAPSSKSTSGGTAALGCLVKDYFPEPVTVSWNSGALTSGVHTFPAVLQSSGLYSLSSVVTVPSSSLGTQTYICNVNHKPSNTKVDKKVEPKSCDKTHTCPPCPYPELLTGPSVFLFPPKPKDTLMISRTPEVTCVVVDVSDEDPEVKFNWYVDGVEVHNAKTKPREEQYNSTYRVVSVLTVLHQDWLNGKEYKCKVSNKALPKPIEKTISKAKGQPREPQVYTLPPSREEMTKNQVSLTCLVKGFYPSDIAVEWESNGQPENNYKTTPPVLDSDGSFFLYSKLTVDKSRWQQGNVFSCSVMHEALHNHYTQKSLSLSP
light: DIVMTQSPATLSLSPGERATLSCTSSQSVYHANWLSWFQQKPGQPPKLLIYWASTLAYGVPSRFSGSGSGTDFTLTISSLQPEDAATYYCAGGYGGGRYAFGQGTKVEIKRTVAAPSVFIFPPSDEQLKSGTASVVCLLNNFYPREAKVQWKVDNALQSGNSQESVTEQDSKDSTYSLSSTLTLSKADYEKHKVYACEVTHQGLSSPVTKSFNRGEC
notes: copies: 2 + 2
[1]
  Kd: 2.6 µM
[2]
  KD fold (SG1 = 1): 6.5 fold
[3]
  KD fold (SG1 = 1): 2.3 fold
[4]
  KD fold (SG1 = 1): 4.6 fold
[5]
  KD fold (SG1 = 1): 3.9 fold
[6]
  KD fold (SG1 = 1): 4.9 fold
[7]
  KD fold (SG1 = 1): 0.2 fold
[8]
  KD fold (SG1 = 1): 0.1 fold
[9]
  KD fold (SG1 = 1): 3.8 fold

B3: M103205H795-MY475/M103202L889-SK1 (antibody, human IgG1, kappa)
heavy: QVTLKESGPVLVKPTETLTLTCTVSGIDLSHDDISWVRQAPGKGLEWVGIISYAGSTYYASWAKGRLTISKDTSKNQVVLTMTNMDPVDTATYYCARGVPAYSHGGDLWGQGTLVTVSSASTKGPSVFPLAPSSKSTSGGTAALGCLVKDYFPEPVTVSWNSGALTSGVHTFPAVLQSSGLYSLSSVVTVPSSSLGTQTYICNVNHKPSNTKVDKKVEPKSCDKTHTCPPCPWPELLTGPSVFLFPPKPKDTLMISRTPEVTCVVVDVSDEDPEVKFNWYVDGVEVHNAKTKPREEQYNSTYRVVSVLTVLHQDWLNGKEYKCKVSNKALPKPIEKTISKAKGQPREPQVYTLPPSREEMTKNQVSLTCLVKGFYPSDIAVEWESNGQPENNYKTTPPVLDSDGSFFLYSKLTVDKSRWQQGNVFSCSVMHEALHNHYTQKSLSLSP
light: DIVMTQSPATLSLSPGERATLSCTSSQSVYHANWLSWFQQKPGQPPKLLIYWASTLAYGVPSRFSGSGSGTDFTLTISSLQPEDAATYYCAGGYGGGRYAFGQGTKVEIKRTVAAPSVFIFPPSDEQLKSGTASVVCLLNNFYPREAKVQWKVDNALQSGNSQESVTEQDSKDSTYSLSSTLTLSKADYEKHKVYACEVTHQGLSSPVTKSFNRGEC
notes: copies: 2 + 2
[1]
  Kd: 2.3 µM
[2]
  KD fold (SG1 = 1): 7.4 fold
[3]
  KD fold (SG1 = 1): 3.2 fold
[4]
  KD fold (SG1 = 1): 8.7 fold
[5]
  KD fold (SG1 = 1): 3.1 fold
[6]
  KD fold (SG1 = 1): 7.7 fold
[7]
  KD fold (SG1 = 1): 0.2 fold
[8]
  KD fold (SG1 = 1): 0.2 fold
[9]
  KD fold (SG1 = 1): 4.2 fold
